Measurements reported in PMC8446579.

Molecular target: Candida parapsilosis ATCC 7330 imine reductase CpIM1 (Candida parapsilosis ATCC 7330)
Assay: SEC

“Candida parapsilosis ATCC 7330 imine reductase CpIM1 (enzyme)” gave a stoichiometry N of 2.
